In paper PMC8137956, “Orphan GPR116 mediates the insulin sensitizing effects of the hepatokine FNDC4 in adipose tissue” (Nature Communications, 2021):

Columns and labels:
[1] = biological target: T1, human GPR116 with C-terminal fused FLAG, stably overexpressed (human, UniProt Q8IZF2 22-1346); assay: flow cytometry on cells; saturation binding of FcsFNDC4 or Fc control on HEK293A cells with stable human GPR116-FLAG OE or mock cells; 4 °C, PBS with 3% FBS; anti-human IgG-PE; Kd from total binding; conditions: one partner purified
T1 construct: human GPR116, recombined from the pEntry1a GPR116 plasmid into plenti6/V5 DEST; Same construct in two HEK293 lines; also called GPR116 OE; HEK293T GPR116 (human) OE cells; not shown: FLAG, C-terminal, kept
T1 sequence (looked up): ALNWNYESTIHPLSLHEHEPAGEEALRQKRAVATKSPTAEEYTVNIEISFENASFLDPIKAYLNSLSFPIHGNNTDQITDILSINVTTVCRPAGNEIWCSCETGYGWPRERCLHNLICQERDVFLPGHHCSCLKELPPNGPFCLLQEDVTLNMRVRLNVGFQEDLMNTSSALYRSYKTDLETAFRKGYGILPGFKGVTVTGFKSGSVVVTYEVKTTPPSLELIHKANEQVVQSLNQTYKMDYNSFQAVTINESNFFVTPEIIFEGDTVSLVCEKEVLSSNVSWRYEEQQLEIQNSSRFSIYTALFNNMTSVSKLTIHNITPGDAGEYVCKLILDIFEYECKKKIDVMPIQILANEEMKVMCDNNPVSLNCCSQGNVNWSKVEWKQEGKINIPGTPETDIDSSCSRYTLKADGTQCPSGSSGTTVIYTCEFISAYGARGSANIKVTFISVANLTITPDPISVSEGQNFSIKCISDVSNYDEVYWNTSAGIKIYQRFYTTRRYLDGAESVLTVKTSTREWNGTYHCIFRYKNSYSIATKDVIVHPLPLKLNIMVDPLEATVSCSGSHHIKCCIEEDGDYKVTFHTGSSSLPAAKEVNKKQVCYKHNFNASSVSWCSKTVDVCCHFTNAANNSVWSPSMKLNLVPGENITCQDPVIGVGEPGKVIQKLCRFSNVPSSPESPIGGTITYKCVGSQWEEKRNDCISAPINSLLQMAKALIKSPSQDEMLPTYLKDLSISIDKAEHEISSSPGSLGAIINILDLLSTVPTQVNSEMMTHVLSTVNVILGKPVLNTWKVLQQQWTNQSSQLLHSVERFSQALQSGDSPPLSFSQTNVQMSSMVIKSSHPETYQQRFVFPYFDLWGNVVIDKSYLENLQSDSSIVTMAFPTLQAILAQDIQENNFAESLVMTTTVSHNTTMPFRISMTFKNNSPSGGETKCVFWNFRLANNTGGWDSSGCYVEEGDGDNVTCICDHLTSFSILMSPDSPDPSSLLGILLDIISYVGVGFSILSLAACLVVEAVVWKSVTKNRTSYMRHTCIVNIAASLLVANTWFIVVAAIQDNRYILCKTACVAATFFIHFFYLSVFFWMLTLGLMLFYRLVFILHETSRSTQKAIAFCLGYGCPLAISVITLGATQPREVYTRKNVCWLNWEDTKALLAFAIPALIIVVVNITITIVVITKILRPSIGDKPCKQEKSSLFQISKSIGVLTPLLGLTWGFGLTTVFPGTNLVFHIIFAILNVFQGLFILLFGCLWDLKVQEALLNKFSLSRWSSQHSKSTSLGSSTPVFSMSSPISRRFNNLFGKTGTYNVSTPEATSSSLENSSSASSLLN

[2] = biological target: T1, human GPR116 with C-terminal fused …; assay: flow cytometry on cells; saturation binding of FcsFNDC4 or Fc control on HEK293T cells with stable human GPR116-FLAG OE or mock cells; also in excess of sFNDC4 (1 mM) for non-specific binding; 4 °C, PBS with 3% FBS; anti-human IgG-PE; Kd from specific binding; conditions: one partner purified

Kd [1]: 33 ± 10 nM
Kd [2]: 25 ± 5 nM
B1: 6xHis-Fc-sFNDC4 fusion protein (extracellular part of mouse FNDC4 fused with human IgG Fc) (Fc fusion)
chain: RPPSPVNVTVTHLRANSATVSWDVPEGNIVIGYSISQQRQNGPGQRVIREVNTTTRACALWGLAEDSDYTVQVRSIGLRGESPPGPRVHFRTLKGSDRLPSNSSSPGDITVEGLDGERPLQTGE
notes: extracellular part of mouse FNDC4 (sFNDC4), stated as aa 40-160; also called FcFNDC4; FcsF4; not shown: 6xHis, N-terminal, kept; Fc (human IgG), N-terminal, kept
